In patent US11795460B2, “Compositions and methods for TTR gene editing and treating ATTR amyloidosis” (Intellia Therapeutics, Inc., priority 2017, dated 2023):
Strand notation (5' to 3'): a small letter for the sugar, then the base; units joined by * are phosphorothioate-linked, units joined directly phosphodiester-linked; [ ] holds rarer units or linkages, { } end groups; capitals alone tell only the bases. m = 2'-O-methyl; r = 2'-OH (RNA)

B1: G000491: TTR sgRNA modified sequence, Human, SEQ ID No. 98; guide sequence of CR003338 (nucleic acid)
guide: mA*mU*mA*rCrCrArGrUrCrCrArGrCrArArGrGrCrArGrGrUrUrUrUrArGrAmGmCmUmAmGmAmAmAmUmAmGmCrArArGrUrUrArArArArUrArArGrGrCrUrArGrUrCrCrGrUrUrArUrCrAmAmCmUmUmGmAmAmAmAmAmGmUmGmGmCmAmCmCmGmAmGmUmCmGmGmUmGmCmU*mU*mU*mU
B2: G000481: TTR sgRNA modified sequence, Human, SEQ ID No. 88; guide sequence of CR003345 (nucleic acid)
guide: mU*mC*mU*rArGrArArCrUrUrUrGrArCrCrArUrCrArGrGrUrUrUrUrArGrAmGmCmUmAmGmAmAmAmUmAmGmCrArArGrUrUrArArArArUrArArGrGrCrUrArGrUrCrCrGrUrUrArUrCrAmAmCmUmUmGmAmAmAmAmAmGmUmGmGmCmAmCmCmGmAmGmUmCmGmGmUmGmCmU*mU*mU*mU
B3: G000490: TTR sgRNA modified sequence, Human, SEQ ID No. 97; guide sequence of CR003366 (nucleic acid)
guide: mA*mA*mA*rUrArGrArCrArCrCrArArArUrCrUrUrArCrGrUrUrUrUrArGrAmGmCmUmAmGmAmAmAmUmAmGmCrArArGrUrUrArArArArUrArArGrGrCrUrArGrUrCrCrGrUrUrArUrCrAmAmCmUmUmGmAmAmAmAmAmGmUmGmGmCmAmCmCmGmAmGmUmCmGmGmUmGmCmU*mU*mU*mU
B4: G000484: TTR sgRNA modified sequence, Human, SEQ ID No. 91; guide sequence of CR003367 (nucleic acid)
guide: mA*mG*mA*rCrArCrCrArArArUrCrUrUrArCrUrGrGrArGrUrUrUrUrArGrAmGmCmUmAmGmAmAmAmUmAmGmCrArArGrUrUrArArArArUrArArGrGrCrUrArGrUrCrCrGrUrUrArUrCrAmAmCmUmUmGmAmAmAmAmAmGmUmGmGmCmAmCmCmGmAmGmUmCmGmGmUmGmCmU*mU*mU*mU
B5: G000493: TTR sgRNA modified sequence, Human, SEQ ID No. 100; guide sequence of CR003368 (nucleic acid)
guide: mA*mA*mG*rUrGrCrCrUrUrCrCrArGrUrArArGrArUrUrGrUrUrUrUrArGrAmGmCmUmAmGmAmAmAmUmAmGmCrArArGrUrUrArArArArUrArArGrGrCrUrArGrUrCrCrGrUrUrArUrCrAmAmCmUmUmGmAmAmAmAmAmGmUmGmGmCmAmCmCmGmAmGmUmCmGmGmUmGmCmU*mU*mU*mU
B6: G000482: TTR sgRNA modified sequence, Human, SEQ ID No. 89; guide sequence of CR003365 (nucleic acid)
guide: mU*mG*mU*rArGrArArGrGrGrArUrArUrArCrArArArGrGrUrUrUrUrArGrAmGmCmUmAmGmAmAmAmUmAmGmCrArArGrUrUrArArArArUrArArGrGrCrUrArGrUrCrCrGrUrUrArUrCrAmAmCmUmUmGmAmAmAmAmAmGmUmGmGmCmAmCmCmGmAmGmUmCmGmGmUmGmCmU*mU*mU*mU
B7: G000495: TTR sgRNA modified sequence, Human, SEQ ID No. 102; guide sequence of CR003343 (nucleic acid)
guide: mC*mA*mG*rArGrGrArCrArCrUrUrGrGrArUrUrCrArCrGrUrUrUrUrArGrAmGmCmUmAmGmAmAmAmUmAmGmCrArArGrUrUrArArArArUrArArGrGrCrUrArGrUrCrCrGrUrUrArUrCrAmAmCmUmUmGmAmAmAmAmAmGmUmGmGmCmAmCmCmGmAmGmUmCmGmGmUmGmCmU*mU*mU*mU
B8: G000492: TTR sgRNA modified sequence, Human, SEQ ID No. 99; guide sequence of CR003342 (nucleic acid)
guide: mC*mU*mU*rCrUrCrUrArCrArCrCrCrArGrGrGrCrArCrGrUrUrUrUrArGrAmGmCmUmAmGmAmAmAmUmAmGmCrArArGrUrUrArArArArUrArArGrGrCrUrArGrUrCrCrGrUrUrArUrCrAmAmCmUmUmGmAmAmAmAmAmGmUmGmGmCmAmCmCmGmAmGmUmCmGmGmUmGmCmU*mU*mU*mU
B9: G000483: TTR sgRNA modified sequence, Human, SEQ ID No. 90; guide sequence of CR005298 (nucleic acid)
guide: mU*mC*mC*rArCrUrCrArUrUrCrUrUrGrGrCrArGrGrArGrUrUrUrUrArGrAmGmCmUmAmGmAmAmAmUmAmGmCrArArGrUrUrArArArArUrArArGrGrCrUrArGrUrCrCrGrUrUrArUrCrAmAmCmUmUmGmAmAmAmAmAmGmUmGmGmCmAmCmCmGmAmGmUmCmGmGmUmGmCmU*mU*mU*mU
B10: G000485: TTR sgRNA modified sequence, Human, SEQ ID No. 92; guide sequence of CR003336 (nucleic acid)
guide: mC*mC*mU*rCrCrUrCrUrGrCrCrUrUrGrCrUrGrGrArCrGrUrUrUrUrArGrAmGmCmUmAmGmAmAmAmUmAmGmCrArArGrUrUrArArArArUrArArGrGrCrUrArGrUrCrCrGrUrUrArUrCrAmAmCmUmUmGmAmAmAmAmAmGmUmGmGmCmAmCmCmGmAmGmUmCmGmGmUmGmCmU*mU*mU*mU
B11: G000489: TTR sgRNA modified sequence, Human, SEQ ID No. 96; guide sequence of CR003344 (nucleic acid)
guide: mU*mU*mU*rGrArCrCrArUrCrArGrArGrGrArCrArCrUrGrUrUrUrUrArGrAmGmCmUmAmGmAmAmAmUmAmGmCrArArGrUrUrArArArArUrArArGrGrCrUrArGrUrCrCrGrUrUrArUrCrAmAmCmUmUmGmAmAmAmAmAmGmUmGmGmCmAmCmCmGmAmGmUmCmGmGmUmGmCmU*mU*mU*mU

Experiments:
TTR [1] = test: TTR editing in primary cyno hepatocytes treated with LNP formulated Spy Cas9 mRNA (SEQ ID NO: 2) and sgRNAs (Tables 17, 18); format: cell-based, cynomolgus monkey; conditions: Table 17, LNP formulated Spy Cas9 mRNA (SEQ ID NO: 2) and sgRNA, 12.5 ng mRNA, 3.9 nM sgRNA, 72 hours
Summary of the method: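 Primary cynomolgus hepatocytes, 24 h after plating, dosed with LNPs (N:P about 4.5 or 6, mRNA:gRNA 1:1 by weight) pre-incubated 5 min at 37° C. in medium with 6% cyno serum, in an 8-point 2-fold dose response. Editing = indel/substitution reads over total reads by amplicon MiSeq sequencing.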

TTR [2] = test: TTR editing in primary human hepatocytes transfected with Spy Cas9 mRNA and sgRNAs (Table 13); format: cell-based; conditions: primary human hepatocytes co-transfected with Spy Cas9 mRNA (SEQ ID NO:2) and sgRNAs, 12.5 nM
Experimental: (§1) Primary liver hepatocytes. Primary human liver hepatocytes (PHH) and primary cynomolgus liver hepatocytes (PCH) (Gibco) were cultured per the manufacturer's protocol (Invitrogen, protocol 11.28.2012). In brief, the cells were thawed and resuspended in hepatocyte thawing medium with supplements (Gibco, Cat. CM7000) followed by centrifugation at 100 g for 10 minutes for human and 80 g for 4 minutes for cyno. The supernatant was discarded and the pelleted cells resuspended in hepatocyte plating medium plus supplement pack (Invitrogen, Cat. A1217601 and CM3000). Cells were counted and plated on Bio-coat collagen I coated 96-well plates (ThermoFisher, Cat. 877272) at a density of 33,000 cells/well for human or 60,000 cells/well for cyno (or 65,000 cells/well when assaying effects on TTR protein, described further below). Plated cells were allowed to settle and adhere for 6 or 24 hours in a tissue culture incubator at 37° C. and 5% CO2 atmosphere. After incubation cells were checked for monolayer formation and media was replaced with hepatocyte culture medium with serum-free supplement pack (Invitrogen, Cat. A1217601 and CM4000).
Lipofectamine RNAiMax (ThermoFisher, Cat. 13778150) based transfections were conducted as per the manufacturer's protocol. Cells were sequentially transfected with a lipoplex containing Spy Cas9 mRNA (100 ng), Lipofectamine RNAiMax (0.4 […]) and tracer RNA ([…]), Lipofectamine RNAiMax (0.4 μL/well) and OptiMem.
Transfected cells were harvested post-transfection at 24, 48, or 72 hours. The genomic DNA was extracted from each well of a 96-well plate using 50 μL/well BuccalAmp DNA Extraction solution (Epicentre, Cat. QE09050) per manufacturer's protocol. All DNA samples were subjected to PCR and subsequent NGS analyses, as described herein.
(§2) To quantitatively determine the efficiency of editing at the target location in the genome, sequencing was utilized to identify the presence of insertions and deletions introduced by gene editing.
(§3) Primers were designed around the target site within the gene of interest (e.g. TTR), and the genomic area of interest was amplified.
(§4) Additional PCR was performed per the manufacturer's protocols (Illumina) to add chemistry for sequencing. The amplicons were sequenced on an Illumina MiSeq instrument. The reads were aligned to a reference genome (e.g., the human reference genome (hg38), the cynomologus reference genome (mf5), the rat reference genome (rn6), or the mouse reference genome (mm10)) after eliminating those having low quality scores. The resulting files containing the reads were mapped to the reference genome (BAM files), where reads that overlapped the target region of interest were selected and the number of wild type reads versus the number of reads which contain an insertion, substitution, or deletion was calculated.
(§5) The editing percentage (e.g., the “editing efficiency” or “percent editing” or “indel frequency”) is defined as the total number of sequence reads with insertions/deletions (“indels”) or substitutions over the total number of sequence reads, including wild type.
Guides in modified sgRNA format targeting human and/or cyno TTR were delivered to primary human hepatocytes and primary cyno hepatocytes as described in Example 1. Percent editing was determined for crRNAs comprising each guide sequence across each cell type and the guide sequences were then rank ordered based on highest % edit. The screening data for the guide sequences in Table 2 in both cell lines are listed below (Table 12 through 15).

TTR [3] = test: TTR editing in primary human hepatocytes treated with LNP formulated Spy Cas9 mRNA (SEQ ID NO: 2) and sgRNAs (Table 16); format: cell-based; conditions: LNP formulated Spy Cas9 mRNA (SEQ ID NO: 2) and sgRNA, 72 hours
Experimental: as §1
In general, the lipid nanoparticle components were dissolved in 100% ethanol with the lipid component of various molar ratios. The RNA cargos were dissolved in 25 mM citrate, 100 mM NaCl, pH 5.0, resulting in a concentration of RNA cargo of approximately 0.45 mg/mL. The LNPs were formulated with a lipid amine to RNA phosphate (N:P) molar ratio of about 4.5 or about 6, with the ratio of mRNA to gRNA at 1:1 by weight.
The LNPs were formed by microfluidic mixing of the lipid and RNA solutions using a Precision Nanosystems NanoAssemblr™ Benchtop Instrument, according to the manufacturer's protocol. A 2:1 ratio of aqueous to organic solvent was maintained during mixing using differential flow rates. After mixing, the LNPs were collected, diluted in water (approximately 1:1 v/v), held for 1 hour at room temperature, and further diluted with water (approximately 1:1 v/v) before final buffer exchange. The final buffer exchange into 50 mM Tris, 45 mM NaCl, 5% (w/v) sucrose, pH 7.5 (TSS) was completed with PD-10 desalting columns (GE). If required, formulations were concentrated by centrifugation with Amicon 100 kDa centrifugal filters (Millipore). The resulting mixture was then filtered using a 0.2 μm sterile filter. The final LNP was stored at −80° C. until further use.
as §2, §3, §4, §5
Lipid nanoparticle formulations of modified sgRNAs targeting human TTR and the cyno matched sgRNA sequences were tested on primary human hepatocytes and primary cyno hepatocytes in a dose response curve. Primary human and cyno hepatocytes were plated as described in Example 1. […]

| Molecule | 12.5 ng mRNA, 3.9 nM sgRNA Avg % Edit (TTR [1]) | Avg % Deletion (TTR [2]) | Avg % Edit (TTR [2]) | Avg % Insert (TTR [2]) | 12.5 ng mRNA, 3.9 nM sgRNA Avg % Edit (TTR [3]) |
| --- | --- | --- | --- | --- | --- |
| B1 | 6.37% | 3.60% | 45.93% | 42.42% | 31.60% |
| B2 | 49.20% | 19.77% | 34.30% | 14.62% | 24.37% |
| B3 | 15.23% | 5.38% | 24.72% | 19.38% | 10.53% |
| B4 | 0.10% | 29.48% | 43.37% | 13.98% | 16.67% |
| B5 | 7.63% | 0.97% | 11.55% | 10.65% | 7.33% |
| B6 | 26.13% | 13.25% | 40.93% | 27.70% | 19.10% |
| B7 | 0.73% | 4.45% | 47.77% | 43.40% | 23.97% |
| B8 | 0.70% | 2.22% | 34.65% | 32.45% | 15.87% |
| B9 | 0.73% | 23.85% | 27.82% | 4.05% | 7.37% |
| B10 | 1.43% | 1.97% | 30.82% | 28.87% | 14.23% |
| B11 | 31.87% | 10.28% | 24.25% | 14.17% | 16.85% |
